The target in experiment [1] is IGHV3-21/IGLV3-21^G110 BCR on murine TKO cells (human) (UniProt P01871). Nature of the experiment: flow cytometry dot plot, cell mix B (1:1 IGHV3-21/IGLV3-21^G110 BCR TKO cells and BCR-negative TKO cells), 2 µg/ml anti-human IgM-PE. (In flow cytometry, cells or beads pass a laser one at a time.)
In experiment [2] the target is membrane-bound IGHV3-21/IGLV3-21^R110 BCR on murine TKO cells (human). In words: flow cytometry dot plot, cell mix A (1:1 IGHV3-21/IGLV3-21^R110 BCR TKO cells and BCR-negative TKO cells), 2 µg/ml anti-human IgM-PE.
Sequence of membrane-bound IGHV3-21/IGLV3-21^R110 BCR on murine TKO cells (human) (P01871 other isoform, or with tags, fused parts or gaps, chain 1 of 2): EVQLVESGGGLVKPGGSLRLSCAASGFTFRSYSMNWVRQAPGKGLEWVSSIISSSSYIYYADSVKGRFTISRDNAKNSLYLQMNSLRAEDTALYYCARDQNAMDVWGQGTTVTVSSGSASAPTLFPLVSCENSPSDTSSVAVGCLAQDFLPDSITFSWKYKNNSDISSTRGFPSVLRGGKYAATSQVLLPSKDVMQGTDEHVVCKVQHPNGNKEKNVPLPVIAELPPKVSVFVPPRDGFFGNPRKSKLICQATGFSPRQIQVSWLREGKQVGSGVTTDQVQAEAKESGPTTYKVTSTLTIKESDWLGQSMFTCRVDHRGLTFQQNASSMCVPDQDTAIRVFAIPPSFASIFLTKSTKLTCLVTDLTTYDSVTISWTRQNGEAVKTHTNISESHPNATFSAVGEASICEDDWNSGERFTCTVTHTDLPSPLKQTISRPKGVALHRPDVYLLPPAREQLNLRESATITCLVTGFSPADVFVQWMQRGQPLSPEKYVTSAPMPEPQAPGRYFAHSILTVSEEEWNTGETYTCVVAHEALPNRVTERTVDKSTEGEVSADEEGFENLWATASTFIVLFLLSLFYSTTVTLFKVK
Sequence of membrane-bound IGHV3-21/IGLV3-21^R110 BCR on murine TKO cells (human) (light, as listed by the source, chain 2 of 2): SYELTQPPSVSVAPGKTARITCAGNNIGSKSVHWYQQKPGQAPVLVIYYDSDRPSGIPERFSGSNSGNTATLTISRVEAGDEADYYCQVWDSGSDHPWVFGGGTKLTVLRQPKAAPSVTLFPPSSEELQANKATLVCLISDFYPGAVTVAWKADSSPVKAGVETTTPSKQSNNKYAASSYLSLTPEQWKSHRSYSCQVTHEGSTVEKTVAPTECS

Sequence of IGHV3-21/IGLV3-21^G110 BCR on murine TKO cells (human) (P01871 other isoform, or with tags, fused parts or gaps, chain 1 of 2): as the sequence (P01871 other isoform, or with tags, fused parts or gaps, chain 1 of 2) above
Sequence of IGHV3-21/IGLV3-21^G110 BCR on murine TKO cells (human) (light, as listed by the source, chain 2 of 2): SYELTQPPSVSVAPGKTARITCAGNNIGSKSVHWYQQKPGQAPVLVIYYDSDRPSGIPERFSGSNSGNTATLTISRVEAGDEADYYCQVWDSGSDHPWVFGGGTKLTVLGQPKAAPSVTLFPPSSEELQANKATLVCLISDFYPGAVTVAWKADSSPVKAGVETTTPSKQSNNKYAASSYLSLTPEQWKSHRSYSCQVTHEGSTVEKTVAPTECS

For “Anti-human IgM-PE, Clone: MHM-88, BioLegend Cat-No.: 314508 (antibody)”, in experiment [1], the share of gated cells (P1) in quadrant Q1 (anti-IgM-PE positive, mAb01-01-APC negative) turned out to be 42.2% and the share of gated cells (P1) in quadrant Q2 (anti-IgM-PE positive, mAb01-01-APC positive) turned out to be 1.11%. In experiment [2], this substance gave a share of gated cells (P1) in quadrant Q1 (anti-IgM-PE positive, mAb01-01-APC negative) of 2.78% and a share of gated cells (P1) in quadrant Q2 (anti-IgM-PE positive, mAb01-01-APC positive) of 45.5%.
